According to article PMC12501005:

T1: AflR-DBD (15-79) (Aspergillus flavus, UniProt P41765 15-79)
T1 sequence: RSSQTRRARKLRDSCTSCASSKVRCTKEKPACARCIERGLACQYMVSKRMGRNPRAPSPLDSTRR

T2: AflR 8-98 (Aspergillus flavus, UniProt P41765 8-98)
T2 sequence: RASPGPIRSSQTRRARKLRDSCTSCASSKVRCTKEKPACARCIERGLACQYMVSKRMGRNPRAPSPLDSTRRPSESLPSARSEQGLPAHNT

T3: AflR 15-69 (Aspergillus flavus, UniProt P41765 15-69)
T3 sequence: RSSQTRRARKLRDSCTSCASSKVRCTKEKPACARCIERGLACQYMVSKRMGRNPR

T4: AflR 26-79 (Aspergillus flavus, UniProt P41765 26-79)
T4 sequence: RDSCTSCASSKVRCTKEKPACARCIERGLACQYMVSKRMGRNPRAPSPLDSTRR

T5: AflR 28-57 (Aspergillus flavus, UniProt P41765 28-57)
T5 chain: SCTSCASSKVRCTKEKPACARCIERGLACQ

T6: AflR 15-57 (Aspergillus flavus, UniProt P41765 15-57)
T6 chain: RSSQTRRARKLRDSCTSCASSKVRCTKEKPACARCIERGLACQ

B1: ver1 (dsDNA)
DNA 1: TCAGATATTTCGGTCTCCGAGGAAAGAT
DNA 2: ATCTTTCCTCGGAGACCGAAATATCTGA
B2: vbs inverted repeat (GCG to CCG) (dsDNA)
DNA 1: ACCGACTCTCGGACACCGAGGCAGACCG
DNA 2: CGGTCTGCCTCGGTGTCCGAGAGTCGGT
B3: norA (dsDNA)
DNA 1: ACCGGGCTTTCGGAAAGCGATCAGCTTGT
DNA 2: ACAAGCTGATCGCTTTCCGAAAGCCCGGT
B4: vbs (dsDNA)
DNA 1: ACCGACTCTCGGACAGCGAGGCAGACCG
DNA 2: CGGTCTGCCTCGCTGTCCGAGAGTCGGT
B5: norA inverted repeat (GCG to CCG) (dsDNA)
DNA 1: ACCGGGCTTTCGGAAACCGATCAGCTTGT
DNA 2: ACAAGCTGATCGGTTTCCGAAAGCCCGGT

Legend:
AflR-DBD (15-79) [1] = target: T1, AflR-DBD (15-79); experiment: FCS
AflR 8-98 = target: T2, AflR 8-98; experiment: FCS
AflR 15-69 = target: T3, AflR 15-69; experiment: FCS
AflR 26-79 = target: T4, AflR 26-79; experiment: FCS
AflR 28-57 = target: T5, AflR 28-57; experiment: EMSA
AflR 15-57 = target: T6, AflR 15-57; experiment: EMSA
AflR-DBD (15-79) [2] = target: T1, AflR-DBD (15-79); experiment: EMSA

Binder	binding result (AflR 28-57)	binding result (AflR 15-57)	binding result (AflR-DBD (15-79) [2])	also measured
B1	no binding	no binding	–	Kd (AflR-DBD (15-79) [1]): 401 ± 54.5 nM; Kd (AflR 8-98): 409 ± 137 nM; Kd (AflR 15-69): 1510 ± 250 nM; Kd (AflR 26-79): 4020 ± 594 nM
B2	–	–	binds	–
B3	no binding	no binding	–	–
B4	no binding	no binding	–	–
B5	–	–	binds	–
